Measurements: US7067277B1, “Chimeric G proteins and uses thereof” (H. Lundbeck A/S, priority 1999, dated 2006)

Columns and labels:
Type in all cases: cell-based
[1] = biological target: T1, Human NPFF2 (Homo sapiens, UniProt Q9Y5X5); experiment: Cl- current recording in Xenopus oocytes expressing GPCR and chimeric G protein; details: Xenopus oocytes expressing Human NPFF2 and chimera; mean ± s.e.m
T1 construct: linearized plasmids or PCR products containing the complete coding region of the genes; expressed in transfected cells; host or cells: Xenopus laevis oocytes (receptor cRNA injected)
T1 sequence (Q9Y5X5 103-522): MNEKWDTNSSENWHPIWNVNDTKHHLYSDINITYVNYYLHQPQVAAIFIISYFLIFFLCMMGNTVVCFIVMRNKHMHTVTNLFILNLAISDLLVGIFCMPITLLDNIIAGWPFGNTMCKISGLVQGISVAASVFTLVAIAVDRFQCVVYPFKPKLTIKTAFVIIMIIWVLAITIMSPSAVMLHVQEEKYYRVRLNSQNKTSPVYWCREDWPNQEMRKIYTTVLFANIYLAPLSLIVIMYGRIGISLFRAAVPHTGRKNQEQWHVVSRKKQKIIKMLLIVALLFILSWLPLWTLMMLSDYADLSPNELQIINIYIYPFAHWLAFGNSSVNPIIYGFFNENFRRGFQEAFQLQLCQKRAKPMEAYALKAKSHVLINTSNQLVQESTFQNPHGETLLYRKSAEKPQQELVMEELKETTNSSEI
Method: (§1) Oocytes were harvested from Xenopus laevis and injected with mRNA transcripts as previously described (Quick and Lester, 1994; Smith et al., 1997). Receptor and chimeric G protein α subunit RNA transcripts were synthesized using the T7 polymerase (“Message Machine,” Ambion) from linearized plasmids or PCR products containing the complete coding region of the genes. Oocytes were injected with 5–25 ng synthetic receptor RNA and incubated for 3–8 days at 17 degrees. Three to eight hours prior to recording, oocytes were injected with 500 pg chimeric Gα subunit mRNA. Dual electrode voltage clamp (Axon Instruments Inc.) was performed using 3 M KCl-filled glass microelectrodes having resistances of 1–2 MOhm. Unless otherwise specified, oocytes were voltage clamped at a holding potential of −80 mV. During recordings, oocytes were bathed in continuously flowing (1–3 ml/min) medium containing 96 mM NaCl, 2 mM KCl, 1.8 mM CaCl2, 1 mM MgCl2, and 5 mM HEPES, pH 7.5 (ND96). Drugs were applied by local perfusion from a 10 μl glass capillary tube fixed at a distance of 0.5 mm from the oocyte. Experiments were carried out at room temperature. All values are expressed as mean±standard error of the mean.

[2] = biological target: T2, Rat GALR1 (Rattus norvegicus, UniProt Q62805); experiment: as above; details: Xenopus oocytes expressing Rat GALR1 and chimera; mean ± s.e.m
T2 construct: linearized plasmids or PCR products containing the complete coding region of the genes; expressed in transfected cells; host or cells: Xenopus laevis oocytes (receptor cRNA injected)
T2 sequence (Q62805 1-346): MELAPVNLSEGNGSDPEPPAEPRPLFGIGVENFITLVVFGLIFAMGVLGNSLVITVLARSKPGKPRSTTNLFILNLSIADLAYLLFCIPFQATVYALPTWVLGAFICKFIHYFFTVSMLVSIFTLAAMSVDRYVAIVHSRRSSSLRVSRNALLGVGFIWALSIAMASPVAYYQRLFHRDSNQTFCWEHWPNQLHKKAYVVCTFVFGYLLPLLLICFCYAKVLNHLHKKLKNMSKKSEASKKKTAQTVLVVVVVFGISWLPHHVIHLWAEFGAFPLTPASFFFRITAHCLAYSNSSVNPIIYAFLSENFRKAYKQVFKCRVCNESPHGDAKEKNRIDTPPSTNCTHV
Method: as §1

[3] = tested on: GALR1, Y1, NPFF2, and 5HT1D; experiment: Cl- current recording in Xenopus oocytes, C. elegans versus human chimera
Method: as §1

[4] = biological target: T3, h D1 (Homo sapiens, UniProt P21728); experiment: Calcium mobilization (FLIPR, Fluo-3) in transfected COS-7 cells
T3 construct: expressed in transfected cells; host or cells: COS-7
T3 sequence (P21728 whole entry): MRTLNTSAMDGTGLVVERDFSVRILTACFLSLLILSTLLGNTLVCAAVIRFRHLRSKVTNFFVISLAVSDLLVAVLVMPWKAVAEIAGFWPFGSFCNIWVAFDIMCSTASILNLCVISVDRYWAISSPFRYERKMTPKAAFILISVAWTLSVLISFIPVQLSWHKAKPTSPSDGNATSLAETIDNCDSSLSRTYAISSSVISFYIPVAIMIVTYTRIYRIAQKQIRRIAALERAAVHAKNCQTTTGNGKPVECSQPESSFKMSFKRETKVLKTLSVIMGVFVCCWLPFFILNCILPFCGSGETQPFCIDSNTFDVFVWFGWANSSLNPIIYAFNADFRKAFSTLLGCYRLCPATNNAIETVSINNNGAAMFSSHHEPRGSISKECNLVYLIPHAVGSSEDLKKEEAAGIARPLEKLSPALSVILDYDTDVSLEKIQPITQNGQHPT
Method: COS-7 cells were cultured in 225 cm^2 flasks in Dulbecco's Modified Eagle Medium (DMEM) with supplements (10% bovine calf serum, 4 mM glutamine, 100 units/ml penicillin and 100 μg/ml streptomycin) at 37° C., 5% CO2. Stock plates of COS-7 cells were trypsinized and split 1:6 every 3–4 days.
For evaluating the function of a single chimeric G protein, the standard cDNA transfection ratio was 1:1 (10 μg GPCR cDNA and 10 μg chimeric G protein cDNA). For evaluating the function of a mixture of chimeric G proteins, the standard cDNA transfection ratio was 8:1:1 (16 μg GPCR cDNA, 2 μg Gαq/z cDNA, 2 μg Gαq/s cDNA).
Twenty four hours after transient transfection, COS-7 cells were seeded into 96-well black wall microtiter plates coated with poly-D-lysine for assay the following day. […] After excess dye was discarded, cells were washed in assay buffer and layered with a final volume equal to 100 μl/well. Basal fluorescence was monitored in a fluorometric imaging plate reader (FLIPR™, Molecular Devices) with an excitation wavelength of 488 nm and an emission range of 500 to 560 nm. Laser excitation energy was adjusted so that basal fluorescence readings were approximately 10,000 relative fluorescent units. Cells were stimulated with agonists diluted in assay buffer (50 μl), and relative fluorescent units were measured at defined intervals (exposure=0.4 sec) over a 3 min period at room temperature. Maximum change in fluorescence was calculated for each well. Concentration-response curves derived from the maximum change in fluorescence were analyzed by nonlinear regression (Hill equation).

[5] = biological target: T4, Rat Y5 (Rattus norvegicus, UniProt Q63634); experiment: Cl- current recording in Xenopus oocytes expressing GPCR and chimeric G protein; details: Xenopus oocytes expressing Rat Y5 and chimera; mean ± s.e.m
T4 construct: linearized plasmids or PCR products containing the complete coding region of the genes; expressed in transfected cells; host or cells: Xenopus laevis oocytes (receptor cRNA injected)
T4 sequence (Q63634 1-445): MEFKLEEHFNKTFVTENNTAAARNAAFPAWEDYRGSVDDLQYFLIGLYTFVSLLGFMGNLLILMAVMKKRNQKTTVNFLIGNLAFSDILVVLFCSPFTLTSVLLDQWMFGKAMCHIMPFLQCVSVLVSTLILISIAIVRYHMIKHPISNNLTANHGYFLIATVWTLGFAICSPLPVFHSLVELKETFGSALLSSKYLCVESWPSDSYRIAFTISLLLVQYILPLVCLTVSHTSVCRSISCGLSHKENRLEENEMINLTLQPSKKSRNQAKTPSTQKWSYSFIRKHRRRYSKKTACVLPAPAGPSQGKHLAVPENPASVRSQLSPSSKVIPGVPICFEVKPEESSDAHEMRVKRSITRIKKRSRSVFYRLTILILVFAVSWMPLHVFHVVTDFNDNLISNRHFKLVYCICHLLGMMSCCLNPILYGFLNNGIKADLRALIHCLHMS
Method: as §1

B1: cGαq/z5: chimeric Gα subunit: C-terminal final 5 amino acids of C. elegans Gαq replaced with those of hGαz (SEQ ID NO: 1) (protein)
chain: MACCLSEEAREQKRINQEIEKQLQRDKRNARRELKLLLLGTGESGKSTFIKQMRIIHGQGYSEEDKRAHIRLVYQNVFMAIQSMIRAMDTLDIKFGNESEELQEKAAVVREVDFESVTSFEEPYVSYIKELWEDSGIQECYDRRREYQLTDSAKYYLSDLRRLAVPDYLPTEQDILRVRVPTTGIIEYPFDLEQIIFRMVDVGGQRSERRKWIHCFENVTSIMFLVALSEYDQVLVECDNENRMEESKALFRTIITYPWFTNSSVILFLNKKDLLEEKILYSHLADYFPEYDGPPRDPIAAREFILKMFVDLNPDADKIIYSHFTCATDTENIRFVFAAVKDTILQHNLKYIGLC
modifications: C. elegans
With B1 as the molecule, how does the “Response amplitudes (nA) in oocytes” value [1] read?
The value was 1121 ± 261 nA.

And the “Response amplitudes (nA) in oocytes” value [2]?
Its value is 91 ± 38 nA.

What about the “increase in response over currents from oocytes expressing the human version of the chimera” value [3] of the same molecule?
Its value is 2–3 fold.

What about the maximal signal ([4]; human D1 receptor in COS-7, dopamine 0.3 nM to 100 μM concentration-response curve, example shown, FIG. 4B) of the same molecule?
The maximal signal was 14,723 fluorescence units.

And the “MAXIMAL SIGNAL (FLUORESCENCE UNITS)” value ([4]; human D1 receptors in COS-7, 10 μg chimera cDNA and 10 μg receptor cDNA, 100 μM dopamine, Table 9 parallel comparison, mean of two experiments)?
Its value is 4832 fluorescence units.

B2: cGαq/z9: C. elegans Gαq with Gαz portion of the C-terminal tail extended to 9 amino acids (SEQ ID NO: 2) (protein)
chain: MACCLSEEAREQKRINQEIEKQLQRDKRNARRELKLLLLGTGESGKSTFIKQMRIIHGQGYSEEDKRAHIRLVYQNVFMAIQSMIRAMDTLDIKFGNESEELQEKAAVVREVDFESVTSFEEPYVSYIKELWEDSGIQECYDRRREYQLTDSAKYYLSDLRRLAVPDYLPTEQDILRVRVPTTGIIEYPFDLEQIIFRMVDVGGQRSERRKWIHCFENVTSIMFLVALSEYDQVLVECDNENRMEESKALFRTIITYPWFTNSSVILFLNKKDLLEEKILYSHLADYFPEYDGPPRDPIAAREFILKMFVDLNPDADKIIYSHFTCATDTENIRFVFAAVKDTILQNNLKYIGLC
modifications: C. elegans
With B2 as the molecule, how does the “Response amplitudes (nA) in oocytes” value [5] read?
The value was 65 ± 34 nA.

And the “MAXIMAL SIGNAL (FLUORESCENCE UNITS)” value ([4]; h D1 + chimera in COS-7, agonist DA, max 100 μM)?
The value was 13099 fluorescence units.
